Results taken from patent US20150266962A1 (Pfizer, published 2015).
Substitutions are numbered along the chain they refer to. Numbers in names are those of the source. Values belong to the binder of their own block, whether it stands above or below them.

Experiments:
[1] = biological target: T1, recombinant human IL-13 receptor alpha 2 (hIL-13-Rα2) (human, UniProt Q14627 27-343); test: direct ELISA on rhIL-13Rα2 (given as ED50)
T1 construct: Recombinant soluble antigen coated on ELISA plates or used in Biacore; also called rec hIL-13Rα2; rhIL-13Rα2
T1 sequence (looked up): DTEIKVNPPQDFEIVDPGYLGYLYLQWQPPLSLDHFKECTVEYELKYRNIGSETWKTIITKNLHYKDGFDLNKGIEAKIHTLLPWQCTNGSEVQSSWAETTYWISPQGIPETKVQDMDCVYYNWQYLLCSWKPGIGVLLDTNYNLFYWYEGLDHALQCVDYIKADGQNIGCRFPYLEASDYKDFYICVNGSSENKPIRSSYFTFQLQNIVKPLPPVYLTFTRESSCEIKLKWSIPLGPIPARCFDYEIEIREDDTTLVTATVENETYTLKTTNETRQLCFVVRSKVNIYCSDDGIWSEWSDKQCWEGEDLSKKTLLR

[2] = biological target: T1, recombinant human IL-13 receptor alpha …; test: competition ELISA on plate (recombinant IL-13-Rα2), competitor biotinylated ch07
[3] = biological target: T1, recombinant human IL-13 receptor alpha …; test: direct ELISA on rhIL-13Rα2, purified protein (given as ED50)
[4] = biological target: T1, recombinant human IL-13 receptor alpha …; test: competition ELISA on plate, competitor biotinylated ch07, purified protein
[5] = biological target: T1, recombinant human IL-13 receptor alpha …; test: competition ELISA on coated recombinant hIL-13-Rα2, competitor biotin-ch08
Experimental: A competition ELISA was performed to assess whether hu08 1.0 and hu08 v1.1 compete with ch08 for IL-13-Rα2 binding. Recombinant hIL-13-Rα2 was coated onto 96-well plates at 50 ul of […] in PBS overnight at 4° C. Plates were then blocked and washed following standard ELISA protocol. A 3-fold serially diluted ch08, hu08 1.0 and hu08 v1.1, and negative control ch07 (2× final concentration) were mixed with biotinylated ch08 (2×EC₅₀). 50 μl of the antibody and biotin-ch08 mixture were added to the plate and incubated for 1 hour at room temperature. The amount of biotin-ch08 bound was detected by HRP conjugated streptavidin.

[6] = biological target: T2, cynomolgus monkey IL-13-Rα2 ECD/TM domain with C-terminal Flag tag, on transfected HEK293 cells (cynomolgus monkey, UniProt Q14627 27-363 (human entry)); test: FACS on HEK293 cells transfected with cyno-IL-13-Rα2 (given as ED50)
T2 construct: also called cyno-IL-13-Rα2; cyno IL-13Rα2; not shown: Flag tag at the C-terminal end
T2 chain: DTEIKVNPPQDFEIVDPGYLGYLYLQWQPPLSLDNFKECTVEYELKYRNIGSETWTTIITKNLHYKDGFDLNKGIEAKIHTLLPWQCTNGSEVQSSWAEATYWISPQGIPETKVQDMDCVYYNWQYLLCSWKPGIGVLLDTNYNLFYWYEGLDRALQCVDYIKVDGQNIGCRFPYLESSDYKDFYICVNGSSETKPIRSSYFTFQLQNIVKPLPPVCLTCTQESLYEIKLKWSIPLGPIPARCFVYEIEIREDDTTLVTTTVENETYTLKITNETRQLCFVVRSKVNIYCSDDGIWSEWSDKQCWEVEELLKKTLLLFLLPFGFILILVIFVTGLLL
Experimental: The ECD/TM domain of cyno IL-13-Rα2 fused with Flag tag at the C-terminal end was cloned into the pSMED2 expression vector. HEK293 suspension cells were transiently transfected with cyno-IL-13-Rα2 containing plasmid and pSMED2 vector (as a mock transfection). The cells were harvested 72 hours later and subjected to FACS analysis. 4 antibodies including ch07, ch08, hu08v1.0/1.0 and hu08v1.1/1.1 were tested. The binding on the cell surface cyno-IL-13-Rα2 was detected with R-Phycoerythrin-labeled goat anti-human or mouse IgG.

[7] = biological target: T1, recombinant human IL-13 receptor alpha …; test: direct ELISA on coated recombinant hIL-13-Rα2
Experimental: Humanized hu08 binding to recombinant hIL-13-Rα2 was evaluated by a standard direct ELISA. Recombinant hIL-13-Rα2 was coated onto a 96-well plate. Serially diluted chimeric antibodies or humanized antibodies in combinations of heavy and light chains of versions 1.0 and 1.1 e.g. hu08 v1.0 HC/1.0 LC, hu08 v1.0 HC/v1.1 LC, hu08 v1.1 HC/v1.0 LC, and hu08 v1.1 HC/v1.1 LC, were added to the plate and incubated at room temperature for 1-2 hours. The binding was detected by HRP conjugated goat anti-human Ig Kappa.

[8] = biological target: T1, recombinant human IL-13 receptor alpha …; test: competition ELISA on hIL-13-Rα2, competitor biotinylated ch08
Experimental: The binding properties of the cysteine mutants to hIL-13-Rα2 were evaluated by a standard ELISA and a competition ELISA. […] This conclusion was confirmed by a competition ELISA with biotinylated ch08.

[9] = biological target: T1, recombinant human IL-13 receptor alpha …; test: standard ELISA on hIL-13-Rα2 (given as ED50)
IL-13 = biological target: T3, IL-13 (UniProt P35225 35-146, limits assumed); test: competition ELISA: IL-13 captured on an anti-Flag coated plate, constant amounts of IL-13 and biotinylated IL-13Rα2-Fc (the competitor), detected with streptavidin-HRP
T3 construct: also called IL-13 cytokine
T3 sequence (P35225 35-146 limits assumed): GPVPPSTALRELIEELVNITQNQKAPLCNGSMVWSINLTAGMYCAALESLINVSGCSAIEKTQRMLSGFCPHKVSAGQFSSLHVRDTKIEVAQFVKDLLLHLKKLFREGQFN
Experimental: In order to assess whether ch07 and ch08 can neutralize IL-13 function, a competition ELISA was performed. An anti-Flag Ab was coated onto 96-well plates and incubated overnight at 4° C. Plates were then blocked and washed following standard ELISA protocol. […] 100 ul of the complex was added to the ELISA plate and incubated for 1 hour at room temperature. The amount of biotin-IL-13-Rα2 bound was detected by HRP conjugated streptavidin at 1:5000 for 1 hour.

EC50 [1]: 0.183 nM | IC50 [2]: 3.03 nM
B1: hu07 heavy chain v1.5 paired with chimeric light chain (antibody, V domains shown)
VH: EVQLVESGGGLVQPGGSLRLSCAASGFSLTKYGVHWVRQAPGKGLEWVGVKWAGGSTDYNSALMSRFTISKDNAKNSLYLQMNSLRAEDTAVYYCARDHRDAMDYWGQGTLVTVSS
VL: QVVLTQSPAIMSASPGERVTMTCTASLSVSSTYLHWYHQKPGSSPKLWIYSTSNLASGVPARFSGSGSGTSYSLTISSMEAEDAATYYCHQYHRSPLTFGSGTKLELK
notes: hIgG1 constant region; the chimeric light chain is the mu07 VL with human kappa constant region; also called hu07v1.5/kc; hu07 v1.5 paired with chimeric light chain Kc

EC50 [1]: 1.21 nM | IC50 [2]: 46.6 nM
B2: hu07 heavy chain v1.5 / light chain v1.1 (antibody, IgG1, V domains shown)
VH: B1 VH
VL: DIQMTQSPSSLSASVGDRVTITCTASLSVSSTYLHWYQQKPGSSPKLLIYSTSNLASGVPSRFSGSGSGTSFTLTISSLQPEDFATYYCHQYHRSPLTFGGGTKVEIK
notes: hIgG1 constant region and hIg Kappa constant region; also called hu07v1.5/v1.1

EC50 [1]: 0.754 nM | IC50 [2]: 62 nM
B3: hu07 heavy chain v1.5 / light chain v1.0 (antibody, IgG1, V domains shown)
VH: B1 VH
VL: B2 VL with S43K, S44A, S71D
notes: hIgG1 constant region and hIg Kappa constant region; also called hu07v1.5/v1.0

EC50 [3]: 0.39 nM | IC50 [4]: 7.7 nM
B4: humanized antibody hu07 heavy chain v1.5 / light chain v1.7 (antibody, IgG1, V domains shown)
VH: B1 VH
VL: B2 VL with L48W, F72Y
notes: hIgG1/kappa; also called hu07Hv1.5/kv1.7

IC50 [5]: 3.16 nM | EC50 [6]: 2.14 nM | EC50 [7]: 0.198 nM
B5: humanized antibody hu08 v1.1 HC/v1.1 LC (antibody, IgG1, V domains shown)
VH: EVQLVESGGGLVQPGGSLRLSCAASGFTFSRNGMSWVRQTPDKRLEWVATVSSGGSYIYYADSVKGRFTISRDNAKNSLYLQMSSLRAEDTAVYYCARQGTTALATRFFDVWGQGTLVTVSS
VL: DIQMTQSPSSLSASVGDRVTITCKASQDVGTAVAWYQQIPGKAPKLLIYSASYRSTGVPDRFSGSGSGTDFSFIISSLQPEDFATYYCQHHYSAPWTFGGGTKVEIK
notes: hIgG1 constant region and hIgKappa constant region; also called hu08 v1.1/1.1; hu08v1.1/1.1

IC50 [5]: 2.14 nM | EC50 [7]: 0.143 nM
B6: humanized antibody hu08 v1.0 HC/v1.1 LC (antibody, IgG1, V domains shown)
VH: B5 VH with T40A, D42G, R44G, S84N
VL: B5 VL
notes: hIgG1 constant region and hIgKappa constant region; also called hu08 v1.0/1.1

IC50 [5]: 2.56 nM | EC50 [7]: 0.163 nM
B7: humanized antibody hu08 v1.1 HC/v1.0 LC (antibody, IgG1, V domains shown)
VH: B5 VH
VL: B5 VL with I39K, D60S, S72T, F73L, I74T
notes: hIgG1 constant region and hIgKappa constant region; also called hu08 v1.1/1.0

IC50 [8]: 2.36 nM | EC50 [9]: 0.108 nM
B8: hu08 with light chain mutation D185A (hu08MAC, unconjugated) (antibody)
heavy: not shown
light: DIQMTQSPSSLSASVGDRVTITCKASQDVGTAVAWYQQKPGKAPKLLIYSASYRSTGVPSRFSGSGSGTDFTLTISSLQPEDFATYYCQHHYSAPWTFGGGTKVEIKRTVAAPSVFIFPPSDEQLKSGTASVVCLLNNFYPREAKVQWKVDNALQSGNSQESVTEQDSKDSTYSLSSTLTLSKAAYEKHKVYACEVTHQGLSSPVTKSFNRGEC
notes: also called hu08/kD185A

IC50 [8]: 2.45 nM | EC50 [9]: 0.11 nM
B9: hu08v1.0/1.0-L443C/K183C (antibody)
heavy: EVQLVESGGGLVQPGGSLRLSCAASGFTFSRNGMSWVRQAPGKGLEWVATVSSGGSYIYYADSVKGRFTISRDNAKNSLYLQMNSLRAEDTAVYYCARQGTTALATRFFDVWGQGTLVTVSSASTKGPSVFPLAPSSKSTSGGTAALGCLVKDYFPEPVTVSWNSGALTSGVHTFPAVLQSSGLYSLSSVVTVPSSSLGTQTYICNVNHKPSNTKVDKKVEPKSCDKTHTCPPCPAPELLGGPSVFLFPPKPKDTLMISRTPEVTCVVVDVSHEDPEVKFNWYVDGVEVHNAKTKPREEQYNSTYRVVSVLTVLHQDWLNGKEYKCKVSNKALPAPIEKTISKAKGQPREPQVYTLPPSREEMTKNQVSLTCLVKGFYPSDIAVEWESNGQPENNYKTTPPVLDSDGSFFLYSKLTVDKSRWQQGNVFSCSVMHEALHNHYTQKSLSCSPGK
light: B8 light with K183C, A185D
notes: also called hu08/L443C/kK183C; L443C/kK183C

IC50 [8]: 2.32 nM | EC50 [9]: 0.12 nM
B10: hu08v1.0/1.0-L443C/A111C (antibody)
heavy: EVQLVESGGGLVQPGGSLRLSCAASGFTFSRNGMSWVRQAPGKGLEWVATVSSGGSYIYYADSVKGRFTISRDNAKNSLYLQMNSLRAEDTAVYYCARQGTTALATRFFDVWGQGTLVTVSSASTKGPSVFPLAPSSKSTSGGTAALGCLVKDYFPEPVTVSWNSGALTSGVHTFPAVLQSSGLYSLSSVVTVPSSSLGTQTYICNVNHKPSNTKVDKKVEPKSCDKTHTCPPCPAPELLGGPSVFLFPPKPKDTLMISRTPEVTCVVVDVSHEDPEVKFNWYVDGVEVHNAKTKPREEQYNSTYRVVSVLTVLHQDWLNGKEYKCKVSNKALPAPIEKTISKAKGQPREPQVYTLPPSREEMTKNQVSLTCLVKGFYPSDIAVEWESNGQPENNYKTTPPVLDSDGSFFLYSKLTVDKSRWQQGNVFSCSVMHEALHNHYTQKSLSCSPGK
light: B8 light with A112C, A185D
notes: also called hu08/L443C/kA111C; L443C/kA111C

IC50 [8]: 2.73 nM | EC50 [9]: 0.18 nM
B11: hu08v1.0/1.0-K188C (antibody, human IgG1, kappa)
heavy: not shown
light: B8 light with A185D, K188C
notes: also called hu08/kK188C; kK188C

IC50 [8]: 2.07 nM | EC50 [9]: 0.1 nM
B12: hu08v1.0/1.0-Q347C (antibody)
heavy: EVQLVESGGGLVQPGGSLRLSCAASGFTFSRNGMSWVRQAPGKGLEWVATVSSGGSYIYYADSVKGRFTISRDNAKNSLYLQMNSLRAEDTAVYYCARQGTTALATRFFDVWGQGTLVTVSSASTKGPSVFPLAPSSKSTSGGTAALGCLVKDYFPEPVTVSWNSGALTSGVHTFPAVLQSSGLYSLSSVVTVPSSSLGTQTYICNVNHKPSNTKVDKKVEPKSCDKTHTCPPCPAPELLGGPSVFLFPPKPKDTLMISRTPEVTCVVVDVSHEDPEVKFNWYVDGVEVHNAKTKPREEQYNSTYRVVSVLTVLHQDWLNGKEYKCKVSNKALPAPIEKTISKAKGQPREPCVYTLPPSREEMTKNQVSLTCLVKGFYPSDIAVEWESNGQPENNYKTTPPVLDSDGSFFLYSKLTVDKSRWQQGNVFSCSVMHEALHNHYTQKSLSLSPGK
light: B8 light with A185D
notes: also called hu08/Q347C

IC50 [8]: 4.07 nM | EC50 [9]: 0.22 nM
B13: hu08v1.0/1.0-A111C (antibody)
heavy: not shown
light: B8 light with A112C, A185D
notes: also called hu08/kA111C; kA111C

IC50 [8]: 2.47 nM | EC50 [9]: 0.11 nM
B14: hu08v1.0/1.0-K183C (antibody, human IgG1, kappa)
heavy: not shown
light: B8 light with K183C, A185D
notes: also called hu08/kK183C; kK183C

IC50 [8]: 2.41 nM | EC50 [9]: 0.13 nM
B15: hu08v1.0/1.0-Q347C/K183C (antibody, human IgG1, kappa)
heavy: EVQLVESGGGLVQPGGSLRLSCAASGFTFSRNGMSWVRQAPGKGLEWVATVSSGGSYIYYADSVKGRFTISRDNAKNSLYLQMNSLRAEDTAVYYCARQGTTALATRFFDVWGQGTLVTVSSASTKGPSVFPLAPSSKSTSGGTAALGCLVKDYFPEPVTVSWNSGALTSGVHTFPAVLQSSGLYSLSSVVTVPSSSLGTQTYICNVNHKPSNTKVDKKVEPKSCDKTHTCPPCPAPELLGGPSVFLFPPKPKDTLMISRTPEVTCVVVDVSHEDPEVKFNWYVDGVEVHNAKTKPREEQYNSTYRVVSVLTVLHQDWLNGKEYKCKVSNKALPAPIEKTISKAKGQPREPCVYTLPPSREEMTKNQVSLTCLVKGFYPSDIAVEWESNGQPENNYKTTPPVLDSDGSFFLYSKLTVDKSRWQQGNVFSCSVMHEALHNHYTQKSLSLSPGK
light: B8 light with K183C, A185D
notes: also called hu08/Q347C/kK183C; Q347C/kK183C

IC50 [8]: 2.1 nM | EC50 [9]: 0.09 nM
B16: hu08v1.0/1.0-K392C/L443C (antibody)
heavy: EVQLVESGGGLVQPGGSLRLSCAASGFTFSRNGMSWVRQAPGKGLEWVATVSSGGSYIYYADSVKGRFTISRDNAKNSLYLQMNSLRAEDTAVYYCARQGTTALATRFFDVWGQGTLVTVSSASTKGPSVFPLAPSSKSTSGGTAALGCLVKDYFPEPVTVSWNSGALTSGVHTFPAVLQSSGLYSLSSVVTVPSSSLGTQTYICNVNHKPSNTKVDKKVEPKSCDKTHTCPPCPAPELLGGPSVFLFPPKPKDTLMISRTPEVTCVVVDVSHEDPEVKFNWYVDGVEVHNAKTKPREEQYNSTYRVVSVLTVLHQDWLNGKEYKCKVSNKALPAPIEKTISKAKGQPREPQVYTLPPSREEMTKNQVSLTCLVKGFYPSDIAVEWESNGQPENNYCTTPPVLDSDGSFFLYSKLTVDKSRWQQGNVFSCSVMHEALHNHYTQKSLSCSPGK
light: B8 light with A185D
notes: also called hu08/L443C/K392C; L443C/K392C

IC50 [8]: 2.17 nM | EC50 [9]: 0.09 nM
B17: hu08v1.0/1.0-V422C/L443C (antibody)
heavy: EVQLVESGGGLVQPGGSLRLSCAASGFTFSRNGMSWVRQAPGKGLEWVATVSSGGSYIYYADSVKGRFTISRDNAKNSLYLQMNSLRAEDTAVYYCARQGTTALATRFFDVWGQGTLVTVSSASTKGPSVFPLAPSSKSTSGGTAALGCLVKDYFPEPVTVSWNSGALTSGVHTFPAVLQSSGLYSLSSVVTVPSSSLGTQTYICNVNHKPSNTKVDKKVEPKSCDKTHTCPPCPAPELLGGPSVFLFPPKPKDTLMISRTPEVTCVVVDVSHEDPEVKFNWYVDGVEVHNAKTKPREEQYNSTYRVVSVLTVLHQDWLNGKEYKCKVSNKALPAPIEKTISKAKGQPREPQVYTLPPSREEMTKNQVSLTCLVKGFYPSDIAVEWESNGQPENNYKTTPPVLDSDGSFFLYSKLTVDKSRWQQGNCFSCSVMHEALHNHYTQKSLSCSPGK
light: B8 light with A185D
notes: also called hu08/L443C/V422C; L443C/V422C

IC50 [8]: 2.44 nM | EC50 [9]: 0.1 nM
B18: hu08v1.0/1.0-Q347C/A111C (antibody)
heavy: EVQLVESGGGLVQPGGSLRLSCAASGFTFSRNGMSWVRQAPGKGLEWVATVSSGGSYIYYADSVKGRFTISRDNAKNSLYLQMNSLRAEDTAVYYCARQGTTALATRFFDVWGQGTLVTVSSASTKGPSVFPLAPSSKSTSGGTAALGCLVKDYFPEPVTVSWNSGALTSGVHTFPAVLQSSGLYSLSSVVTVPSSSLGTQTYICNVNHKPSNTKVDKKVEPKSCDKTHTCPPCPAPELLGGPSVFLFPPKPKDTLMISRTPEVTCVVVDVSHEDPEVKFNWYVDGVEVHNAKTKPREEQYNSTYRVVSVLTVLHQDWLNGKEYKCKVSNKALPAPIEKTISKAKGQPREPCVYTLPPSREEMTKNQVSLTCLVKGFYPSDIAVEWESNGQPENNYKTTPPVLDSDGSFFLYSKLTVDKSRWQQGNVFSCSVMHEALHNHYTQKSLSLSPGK
light: B8 light with A112C, A185D
notes: also called hu08/Q347C/kA111C; Q347C/kA111C

IC50 [8]: 2.25 nM | EC50 [9]: 0.1 nM
B19: hu08v1.0/1.0-L443C (antibody)
heavy: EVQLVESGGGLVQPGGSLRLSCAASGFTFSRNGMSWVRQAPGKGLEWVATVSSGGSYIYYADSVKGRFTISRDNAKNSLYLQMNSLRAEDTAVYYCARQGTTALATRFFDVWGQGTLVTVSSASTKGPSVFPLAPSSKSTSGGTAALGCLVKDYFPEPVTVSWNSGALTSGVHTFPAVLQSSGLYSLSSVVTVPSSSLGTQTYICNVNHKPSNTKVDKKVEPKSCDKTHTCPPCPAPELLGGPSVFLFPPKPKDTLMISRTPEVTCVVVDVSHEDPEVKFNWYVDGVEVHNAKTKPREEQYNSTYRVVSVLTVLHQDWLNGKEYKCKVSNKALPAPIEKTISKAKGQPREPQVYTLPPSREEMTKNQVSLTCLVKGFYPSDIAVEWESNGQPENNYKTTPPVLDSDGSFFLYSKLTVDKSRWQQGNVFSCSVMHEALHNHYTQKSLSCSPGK
light: B8 light with A185D
notes: also called hu08/L443C

IC50 (read off the curve) (IL-13): ~0.1 nM
B20: naked IL-13Rα2 (positive control competitor) (receptor, not shown: a dimerising Fc or GST; large carriers; small tags and cut ends)
chain: T1 sequence (looked up)
